Data as given in the DeepSol protein solubility set.

Experiment: soluble on expression in E. coli; label from the status in PepcDB or PDB records

Row | Sequence | soluble on expression in E. coli
1 | MGSDKIHHHHHHMTEKWLSIVGIGEDGLQGLSAIARSLVDRAKVIVGGDRHLAMLPTDDQREKIVWTSPISISVDEIIQRRGQSICVLASGDPMCYGIGVTLMRRIPVSEMTIIPAPSAFSLACARMGWSLTEVETLSLNGRPSSLLQSYIYPKARLLILSGGKDTPAIVAKILTNRGYGGSEITVLERMGGTHERIVEGTAASWSETEVAALNAIAVYCIADAGVIPLPRLPGLPDNAYHHDGQLTKREVRAITLAALAPTPGQLLWDVGAGCGSISIEWMRSNARCRAIAIEQNSSRLLYIADNAATLGTPNVQIIEGKAPHALKDLPAPDAIFIGGGVTATGLFDVCWEALRPGGRLVANVVTVEGEQTLFQWHERVGGDLTRVAIQRTEPIGKFLGWRAMAPVTQWVVVK | not soluble
2 | MGSDKIHHHHHHMTENNGFQQHVAKVYREHRGERIVPFEYQGKRYWLKQVEHLAGAMRLLKQNSTAALHKEIGILNTLSHIGAPVPAVVDYGDGYMVVEDVGNTINHLLDHTSQALWQPILNDVSVALAKLHSMQLAHGRPALRDISWQAGEVKFIDFEANQQHKSVVSQQVRDVLVFIHSLYRYIGPNNRMINQAIACYRLAGGEAIWQKAKQFLASWQWLYYFARPFRDFGGKDLKPVYWVLWHFRQAPLTLA | not soluble
3 | MGSDKIHHHHHHMTEQVVATETVNLSQDSLQIAAYLAQPQAPGSYPGVVVLQEIFGVNGHIRDVTERIAKLGYVAIAPALFQRQAPGFETGYTPQDIEVGRGYAMQTKASELLNDIQAAIDYLKTLPQVKQNGFGCIGFCFGGHVAYLAATLPDIKATASFYGAGIATRTFGGGNPTVTRTPEIKGTLYGFFGTEDASIPPEQIDQIETELEKYNISHRVFRYDGADHGFFCDRRASYNPQAAADAWEQVQQLFKTVLTT | not soluble
4 | MGSDKIHHHHHHMTETLVQVQKLAMDFPGQKLFNNLSFDVDRRDFLSIIGENGVGKTTLIRALLNQVKPTSGSIKFRKGTKVGYVPQFRNIERDYPLSIRDFVALNLQNGKMPWLSKMERTQLDEILEETDLVDIQNTRIGRASGGQKQKAYLAQALVDNPDLLILDESTASLDTVRKYELFNLVQHFNQQHDLTVISVTHDFDLMQRYSNRYLMLKEDHYALGEVADIKNEEDLLDV | not soluble
5 | MGSDKIHHHHHHMTFEQLLYAVELANHQTLQETADLLHISKSGLSQSISQLENELGVKLFKRTRYGSKLTAQGKELLPLIKQMLSQGVSLTKKAHNLGKSGQIETVRVAYANTMLKPFLNEYLAMYQDVPTKFNMEISQETVTQIIDGIRSHRINLGFIAINDSNKAEIHGLEFKPVHVGHLKLFLSPDNQLVKKQKINIEDLQKQRFALFNDPYNDRIFEHLQYLCGPLKTVIKTDDGWAMYTTIKKANAVALVRDWQTSYSSYEPLQKLPSLDISNLIDDRFYLGWLTNPKYTTSRYTHRYTQEFIKHVDAQIKEC | not soluble
6 | MGSDKIHHHHHHMTIFSVRHITSYRYKRPVEFGEHRLMFRPRDSFDQTLLSSHLDVDPKPDYIRWIHDVFGNCVALVGFTGKARELCFGTNIRLDHTQQVEMDLQIDAEALHYPFAYDPEEVVDLERTIKRHFADPDDEVGRWTRQFVRIGQPTETGRLLMTLCYAIHESFIYARRLEHGTQTPLETLRLRRGTCRDFALLMMEAARSLGLAARFVTGYIYVPDRDGSTKLGGGSTHAWCQVYLPGAGWVEFDPTNGIVGNRDLIRVGVARDPKQAVPLSGSYDGDASDFDTMSVQVNVTTDKLSDTAA | not soluble
7 | MGSDKIHHHHHHMTKESILTFSQSKAEPAWLQEKRLAAFDKIDDLELPRIERVKFQRWNLGDGTITESPISANVPDFTSFGENPKLVQLGTQTVLESLPAKLVEQGVVFTDFHSALEEIPQVIEKYFATALKFDEDKLSAYHTAYFNSGSVLYVPDNVEIDLPLEGIFLQDSTSNVPLNKHVLIIAGRHAKVNYLERFETIGDSDVKATANIAVEVLAQAGSQVKFAAIDRLGNNITTYISRRGRLDNDASIDWALGVMNEGNVIADFDSDLIGNGSHAELKVVAASSGRQIQGIDTRVTNYGNNSIGHILQHGVILERGTLTFNGIGHIIKGAKGADAQQESRVLMLSDKARSDANPILLIDENEVTAGHAASIGQVDPEDMYYLMSRGIDKETAERLVIRGFLGTVITEIPVKAVRDEMIAVLDEKLDKR | not soluble
8 | MGSDKIHHHHHHMTKHLDVGQCLTIIEGTNTALKSYMDHFDFMEAAISRVLELEGSLKGKGGEALLRNYQELQLPAIRAARAFISSMKEMGEKLRSLILSFEPSENGMVSEDFYRNQVTRGYDRFEQFMEQNKAEVDAIAASVSHIIDLGKLDIRHVQDRVDDARKHANDTVEGLYELDHEGMRLMRELQRDMAELKAILKKVTEWTVSGGALLNGVDLNDVRSHFADKTLHTKAPEVSVKLSSPNPLIQYANDFPLRFKYDTMRSIMKVFDLSHHHKWFSNRIKSLPLTSLFIMARWNVNTKSDNYLKVH | not soluble
9 | MGSDKIHHHHHHMTKPMHTPPLVPPQAWEAAREQLLVKEKALTRARDALAAERRQMPWMAVEKEYAFEGPEGRVSLVDLFEGRRQLIVYRAFFEPGVFGWPDHACRGCSMVADQVAHLAHLNARDTTLVFVSRAPQADIARLKARMGWQIPWFTVTDSFDADFGVDEWHGTNVFYRDGDRVFRTYFINNRGDEQMGSTWNYLDITPLGRQEVWEDSPEGYPQTPTYKWWNWHDSYVKDAEPDKKWVEVSDAGEAAFRNQD | not soluble
10 | MGSDKIHHHHHHMTKQSKTQIRICFVGDSFVNGTGDPECLGWTGRVCVNANKKGYDVTYYNLGIRRDTSSDIAKRWLQEVSLRLHKEYNSLVVFSFGLNDTTLENGKPRVSIAETIKNTREILTQAKKLYPVLMISPAPYIEQQDPGRRRRTIDLSQQLALVCQDLDVPYLDVFPLLEKPSVWLHEAKANDGVHPQAGGYTEFARIVENWDAWLNWFR | soluble
11 | MGSDKIHHHHHHMTKRIMFTGGSGKAGRHVVQYLVEQGCQVLNIDTKPLDNPKVRTLITDITDSGQVFNALSSYMGLHEFDPSLRPQPVDAVVHFAAIPRIMITPDNEVFRINAMGTYNVIEAAVKLGIRKVIVASSETTYGLVFANEPRDPKYFPLDEEYDVDPMDSYALSKVVNEKTARAFAQRNGTDIYALRIGNVIEPHEYSLFPKWFADPGFRKRIAWSYIDARDLGQITLRAIEKDGLGYQVFNAANDDTSSDLPTAELLKRFYPNVPVKAALGEYETLLSNRKARDMLGFRPEHSWRKYVK | not soluble
12 | MGSDKIHHHHHHMTLEIAQKRTIKLLKSSTPKEKLNKFVKGYVPTHYKRLSISMEKAIELAIIGATESLAYYGDRLYFTQALLMGAVVSGEYDNIIVVTPSQYGKSWLSSRIAVWLADHNRRCYVAGGKKDTTDIIMQHVTDTLQTVDESIARKLLEPVDKLERLQTGLSKRKISFSGGGSIEGISLGEHFKGNKSGNQAIGRGGDYIIDESAFVSNETYAELGRRNFANVDGKNYLSFEISNPHNKGRFYDKLTQENIPKGMLVVWADVRTAFEEDRVKSIEQVISSEFFQNKSTCQRYFLCELPDENEDGMFGTPQTEEEHTEKNWEYFLGVDSAYKGKDKIKATLSALDAQGQVHVIDTIEIEKGDWQDGVTSKKIITQLLMIIEHFEVKGVCVDVGYGVYIVEGLAHINGDFELHGINFGAGTTKERVEKNHYSAKYGANKRAEMHIDLQENIDNRNIFFTEKVYEEVIDELVLVSSKIKSNGKTAIVPKEEIKAKLGHSPDTLDSVLLSLHAIILYKLNERFYIYS | not soluble
13 | MGSDKIHHHHHHMTLQFLGAAREVTGSCHLVTVAGKHLLLDCGLIQGGKADELRNHEPFVFDPQTIVAVVLSHAHIDHSGRLPLLVKAGFDGPIYTHKATAELCAIMLKDAAMLQVRDTERTNKKRAKHDLAPLEPLFTVEDAEQAISQFVSLEYGQVTRVIPHVDICLSDAGHILGSALVELWLGEGKSQKKIVFSGDLGRAGMPILQNPTLVDTADLVLMESTYGNRFHRSWTDTLAELKDIFAKTVNESQGNILLPAFSVGRAQELLYLFHLYAKEWDLGRWKICLDSPMAIEATRVYVNNYPLMDEDFKRFTRQHPGQHPLLSNVEFIQTTEESIALNEVHKGLIIIAGSGMCNGGRIRSHLEHNLWRSECDVIICGFQALGTPGRALVDGAKELTIHGNSVNVAAKLHTVGGLSAHADQAELLRWYRHFEEQPPLVLVHGEPEAQQGLVAVMNQDPKTKPKALAIATRGDMLDLTALPKLVWVTA | not soluble
14 | MGSDKIHHHHHHMTNIEVEINDNYICVYERLNDDCIRLLHMYGKNPVCVVPDMLDGMRVTELAEYCFSFKSMPEKLKTELGIDDILRPDMTELCDDYIERVILPDGMKKIGRLCFYNCSRLTMLELPSDICDVDGDAFMNCTKLYMLVMRGSPKDKSCLKQILSQISTLVRVRWADSDGNAIAQACFFEYDQTYDEIGPAHIFKLNMNGEGFRARQAFMDRVFVWKQYDEIFSEAIAQESEDDLLDMAFYRLIYAYELSKEARQQFLEYIVNHKKRLSELIIRKRDSGLLQSFLELKDGEENFIADVLAVTDMLALAAQDEWSEGSVILHRFKKENLSVSRKRRFEF | not soluble
15 | MGSDKIHHHHHHMTNMKQLCLICLAFICLFFLDSCGNKNTFRVEGSIAGYEDTAQVYLTKIIGSDLSVLDSVNPDRKGRFSFVAQADSTPSFYQIKLRKQHINFAARIGSEINIQVGRNSFSDYVIEDNQGPDNNNIRKIALLKEQADNRLDHLYRSYQENKLDASQYQDTIAKVIDEFKTTLRNDFIFQDPKSPASYFALFQQKDGLLYFNVYDPMDAKAFAAVATAYDTYYPTSSYTKSVRDLSLLGIAAMRRDRVAKDITTRKIEVKDIPETILIDRKGNEQPLSKVVETNDRVLIVFTSYQAEWSPSLVKEQRALYQRHCNNGFQIYEISVDKDLYFWQNATRTLPWITVNDSEGKAALSFNVRSLPTFFLIQDGELKRLQRLESL | not soluble
16 | MGSDKIHHHHHHMTPLPSFRLSWPSALQRLCHAPAGKHMPAGAYQVHFPRLELVLSNRYHYSHEGCENASLSAQEALFIPAEHWTLPNWCANGEVLHILFDYARIGFSLVRSGPQGVISTHKESMVLAQRGSLNGMLDVLAGLCRDGADPEVLRLQGQALLALLQSLYDEARDSQWQQGGNLFRAICLYISEHLYAPLTREDVALRFSISATHLSRLFRQHLGLGFCEFLSHARLDLAKALLRQGQLPLSRVAARCGYADVNYFHRVFKQRFAMTPCAYRREFA | not soluble
17 | MGSDKIHHHHHHMTPRELTCDETLAEMARVLTVEAAALTQMASEVGDPQLKAVEILEAMEGRVIVSGVGKSGHIGNKIAATLASTGTPAQFVHATEASHGDLGMVTPRDVCLVISNSGETSELADIVTYSRRFAIPLIAITRKADSTLATQADVVLLLPDAPEACGIGMAPTTSTTATLAMGDALAVALMKRRGFEREDFKVFHPGGKLGAQLMLVDGLMHTGEALPLVAPETPMTEALLIMTAKGFGLAGLVEGGRLTGIITDGDLRRNMDGLMARSAGEVATRGPKVIRRGSLASEALHDMNSRKISALFVLDNEDRVAGLLHIHDCLRAGLA | not soluble
18 | MGSDKIHHHHHHMTPRPVSSVARLVEDNAQDFLRAVQAKLLTLAPQARGHFPTADDATHISIAEMVSALLEGTGEEGKVDDKTLEFFKEAALDARRFGLTPEMHSALGEAVRSELLSLCEDLPFENVLFAERAIAATTAVSVEAVREADEAHIPASYQAEIVEVEKRSRRFTVVRMQAETQLPYLPGQYLAATADFLPNTWRYLCPSIPTNEWGQVEFHIQSDADDIAGLLATTRLGDKWRLGPGRGDFGQSKISSGNDLLFIAHGTGLAPLRAYMFELMNQAAPPRLHFFVGADYPGELYELTGMWNFAAASPWLSVVPVSTHDKDAWWVQATEASQPPRGLHLHQTGSMAKIVTEAGAWADRDVLIAGPESWARDVRRAMIRRGTPAQQIEILGF | not soluble
